# Assay results: US20260258115A1 (MAPP BIOPHARMACEUTICAL, published 2026)
# B1: ADI-14405 (antibody, V domains shown)
# VH: QVQLVQSGTEVKKPGASVKVSCKASGYTFTNYDISWVRQAPGQGLEWMGWISGSTGNTIYAQNLQGRLTMTTDTSTSTAYMELRSLRSDDTAIYYCARDNVGYASGNYFDYWGQGTLVTVSS
# VL: SYVLTQPPSVSVAPGKTARIPCGGNNIGSKSVHWYQQRPGQAPVLVIYYDSVRPSGIPERFSGSNSGNTATLTISTVEAGDEADFYCQVWDSSRDHEVFGGGTKLTVL
# notes: also called Ab 71
# B2: ADI-14393 (antibody, V domains shown)
# VH: QVQLVESGGGLVKPGGSLRLSCAASGFSFTGFYMNWVRQAPGKGLEWVSSISSSSTYKNYADSLQGRFTISRDNARSSLYLQMNSLRAEDTAVYYCARTRTEYTYGYYHDFWGQGTLVTVSS
# VL: QPVLTQPPSVSGAPGQRVTISCTGSSSNIGAGYDVHWYQQVPGTAPKLLIYNNNNRPSGVPDRFSGSKSGTSASLAITGLQAEDEADYYCQSYDSRLSGVFGGGTKLTVL
# notes: also called Ab 60
# B3: ADI-14606 (antibody, V domains shown)
# VH: QVQLVQSGGGLVQPGGSLRLSCAASGFTVSSNYMGWVRQAPGKGLEWVSVIYTGGSTYYADSVKGRFTISRDNFKNTLYLQMNSLRAEDTALYYCARDLYSSGWFGYWGQGTLVTVSS
# VL: DIRLTQSPATLSVSPGERATLSCRASQSVSINLGWFQQKPGQSPRLLIYGTSTRATGIPARFSGSGSGTEFTLTISSLQSEDFAVYYCHQYNNWPYTFGQGTKVEIK
# B4: ADI-21053 (antibody, V domains shown)
# VH: QVQLQESGPGLVKPSQTLSLTCTVSGVSISNSSGGYYWSWIRQHPGKGLEWIGYIYYSGSTYYNPSSGSTYYNPSLKSRVTVSVDTSKNQFSLKLTSVTAADTAVYYCARDIRGPHKHSLYNWFHPWGQGTLVTVSS
# VL: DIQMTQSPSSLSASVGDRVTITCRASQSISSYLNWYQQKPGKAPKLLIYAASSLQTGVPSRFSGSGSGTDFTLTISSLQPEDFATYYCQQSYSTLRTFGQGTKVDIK
# B5: ADI-21040 (antibody, V domains shown)
# VH: EVQLLESGPGLVKPSGTPSLTCAVSGVSITNSNNWWTWVRQPPGKGLEWIGEIYSSGSTNYSPSLKSRVTISLDKSKNQFSLKLSSVTAADTAVYYCARVLGYYGSGGGHLHSWGPGTLVTVSS
# VL: SYELTQPPSASGTPGQRVTISCSGSSSNIGAGYDVHWYQQLPGTAPKLLISVNSNRPSGVPDRFSGSKSGTSASLAITGLQAEDEANYYCQSYDNSLSGYVVFGGGTKLTVL
# B6: ADI-14425 (antibody, V domains shown)
# VH: QVQLQESGPGLVKPSETLSLTCTVSGGSVRSGSYYWSWIRQPPGKALEWIGYIYYSGSTNYNPALESRVTISVDTSKNQFSLMLSSVTAADTAVYYCARSAEGLARLYYFDHWGQGTLVTVSS
# VL: QSVLIQPASVSGSPGQSITISCTGTSSDVGGYNYVSWYQQHPGKAPKLMIHDVSNRPSGVSNRFSGSKSGNTASLTISGLQAEDEADYYCSTYRSSNTLVVFGGGTKLTVL
# notes: also called Ab 91
# B7: ADI-14406 (antibody, V domains shown)
# VH: QVQLVQSGAEVKKPGESLKISCKGSGYKFTNYWIAWVRQMPGKGLEWLGVIYPGASDITYSPSFQGQVTISADKSISTAYLQWSSLKASDTAIYYCARQGSITAMSYWGQGTMVTVSS
# VL: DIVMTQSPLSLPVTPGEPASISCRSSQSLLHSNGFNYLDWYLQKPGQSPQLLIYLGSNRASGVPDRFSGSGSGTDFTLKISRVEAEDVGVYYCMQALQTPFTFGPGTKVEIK
# notes: also called Ab 72
# B8: ADI-14421 (antibody, V domains shown)
# VH: QVQLVQSGAEVKKPGESLKISCKGSGYNSSINWIGYWIGWVRQMPGKGLEWMGIINPGDSDTRYSPSFQGQVTISVDKSISTAYLQWGSLKASDTAMYYCARRAYRSGWHFDLWGRGTLVTVSS
# VL: EIVMTQSPATLSVSPGERATLTCRASQSVSSNLAWYQQKPGQAPRLLIYGASTRATGIPARFSGSGSGTQFTLTISSLQSEDFAVYYCQHYNNWPPYTFGQGTKVEIK
# notes: also called Ab 87
# B9: ADI-14573 (antibody, V domains shown)
# VH: QVQLVQSGAEVKKPGASVKVSCKASGYTFTTYGISWVRQAPGQGLEWMGWISTYKTYTNYAQKFQGRVTMTTDTSTSTAYMELRSLRSDDTAVYYCAKVAGGSGSYGDYWGQGTLVTVSS
# VL: QPVLTQPPSVSVAPGKTARITCGGNNIGSKSVHWYLQKPGQAPVLVIYYDSDRPSGIPERFSGSNSGNTATLTISRVEAGDEADFFCQVWDSSSDHWVFGGGTKVTVL
# B10: ADI-14417 (antibody, V domains shown)
# VH: EVQLVESGGGLVKPGGSLRLSCAASGFSFSSYSMHWVRQAPGKGLEWVSSISGSSTYIYHADSVKGRFTISRDNAERSLHLQMNSLRAEDTAVYYCARDPYSSGWLDSWGQGTLVTVSS
# VL: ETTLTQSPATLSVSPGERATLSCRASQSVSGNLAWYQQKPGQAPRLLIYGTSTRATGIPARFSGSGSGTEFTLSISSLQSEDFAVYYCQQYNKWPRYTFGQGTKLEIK
# notes: also called Ab 83
# B11: ADI-14418 (antibody, V domains shown)
# VH: QVQLVQSGAEVKKPGSSVKVSCKASGGTFTNYNINWVRQAPGQGLQWMGRISPTFAIANYAQKFQGRVTITADKSTSTAYMELSSLRSEDTAVYYCARAPHSGYDLALDYWGQGTLVTVSS
# VL: DIQMTQSPSTLSASVGDRVTITCRASQSISSWLAWYQQKPGKAPKLLIYEASSLQSGVPSRFSGSGSGTEFTLTITSLQPDDFATYYCQQYNVYPWTFGQGTKVDIK
# notes: also called Ab 84
# B12: ADI-14589 (antibody, V domains shown)
# VH: QITLKESGPVLVKPSETLTLTCTVSGFSLSNAKMGVSWIRQPPGKALEWLAHIFSNDEKSYNTSLKNRLTISKDTSKSQVVLTMTNMDTVDTATYYCARINYYDSSGYYLANFDYWGQGTLVTVSS
# VL: NIRLTQSPSSLSASVGDRVTITCRASQRIASYLNWYQQKPGHAPKLLIHAASSLQSGVPSRFSGSGSGTDFTLTINSLLPEDFATYYCQQSYSSPPHSSPPLTFGGGTKVEIK
# B13: ADI-14404 (antibody, V domains shown)
# VH: EVQLVESGGGLVQPGGSLRLSCAASGFTFSNFEMNWVRQAPGKGLEWVSYISSSGRIIYYADSVKGRFTISRDNARNSLYVQMNSLRVEDTAVYYCARAKAAAGHDLWGQGTLVTVSS
# VL: EIVLTQSPSTLSASVGDRVTITCRASQSISPWLAWYQQKPGKAPKLLIYRASSLESGVPSRFSGSGSGTEFTLTISSLQPDDFATYYCQHYNSYLYTFGQGTKVEIK
# notes: also called Ab 70
# B14: ADI-14416 (antibody, V domains shown)
# VH: QVQLVQSGAEVKKPGESLKISCKGSGDTFSRNWIGWVRQMPGKGLEWMGIIWPGDSDTRYRQFFQGQQGQVIISVDKSISTAYLQWSSLKASDTATYYCATSPYGLGSYYEHWGQGTLVTVSS
# VL: NFMLTQPHSLSDSPGKTVVISCTRSSGSIASNYVQWYQQRPGSAPTTVIYEDNQRPSGVPDRFSGSIDSSSNSASLTISGLKTEDEADYYCQSYDSSNPYVFGTGTKVTVL
# notes: also called Ab 82
# B15: ADI-14598 (antibody, V domains shown)
# VH: QVQLVQSGAEVKKPGSSVKVSCKASGGTFSSYAIYWVRQAPGQGLECMGGIIPIFGSANYAQKFQGRVTITADESTSTAYMELSSLRSEDTAVYYCATDSLKTTYYYGSSGYFRDHVWGQGTTVTVSS
# VL: ETTLTQSPSSLSASVGDRVTITCRASQGISNYLAWYQQKPGKVPKLLIFAASTLQSGVPSRFSGSGSGTDFTLTISSLQPEDVATYYCQNFNSVLSFTFGPGTKVDIK
# B16: ADI-21056 (antibody, V domains shown)
# VH: EVQLLESGGGLVKPGGSLKLSCAASGFTLRSYYMHWVRQAPGRGLEWVSSISASSSYINYVDAVKGRFTVSRDNAKNSLFLQMNSLRAEDTAVYYCAREGGAMTNFGVVIDIWGQGTMVTVSS
# VL: SYVLTQPPSVSGAPGQRVTISCTGSSSNIGAGYDVHWYQQLPGTAPKLLIYTNTNRPSGVPDRFSGSKSGTSASLAITGLQSDDEADYYCQSYDSSLSGPVVFGGGTKLTVL
# B17: ADI-14605 (antibody, V domains shown)
# VH: EVQLLESGPALVKPTQTLTLTCTFSGFSLTTSGMCVSWIRQPPGKALEWLARIDWDDDQYFSTSLRTRLSISKDTSKNQVVLTMTNMDPVDTATYYCARSALNIAARGFDIWGQGTTVTVSS
# VL: QPGLTQPPSVSVSPGQTARITCSGDVLPKHFSYWYQQKPGQAPVLVIHRDSERPSGIPERFSGSSSGTTVTLTISGVQAEDEADYYCQFSDITNTVFGGGTKLTVL
# B18: ADI-20997 (antibody, V domains shown)
# VH: EVQLVESGGGVVQPGRSLRLSCAASGFPFNSYGMHWVRQAPGKGLEWLAVIYFDESTAYYADSVKGRFTISRDNSKSTLYLQMNSLRAADTAIYYCTTTVMIPYGGVFWGQGTLVTVSS
# VL: EIVMTQSPGTLSLSPGDRATLSCRASQSVGSTHFAWYQQKPGQAPRLLIYAASIRATGIPDRFSGGGSGTDFTLTISRLAPEDFAVYYCQQYGSTPITFGQGTRLEIK
# B19: ADI-41664 (antibody, V domains shown)
# VH: EVQLVQSGDEVKKPGASVKVSCKASGYPFSTYGISWVRQAPGQGLEWMGWIGVYTGGTNYAQKFQGRVTLTTDTSTSTAYMELRSLRSDDTAVYYCARGTGSYMTATYFDYWGQGTLVTVSS
# VL: SYELTQPPSVSVAPGQTARITCGGNNIGSKAVHWYQQKPGQAPVLVVYDDYDRPSGIPERFSGSNSGNTATLTISRVEAGDEADYYCQVWDSSSDYVFGTGTKLTVL
# notes: also called Ab 890; Antibody Number 890
# Biological target: RSV prefusion F (preF), subtype A (respiratory syncytial virus, subtype A, UniProt P03420 26-513)
# Experiment: BLI, IgG
Binder,Kd,binding result
B1,0.142 nM,
B2,0.311 nM,
B3,,no binding
B4,71 nM,
B5,,no binding
B6,48.1 nM,
B7,6.85 nM,
B8,,no binding
B9,,no binding
B10,,no binding
B11,1.25 nM,
B12,6.48 nM,
B13,,no binding
B14,2.39 nM,

# Biological target: T1, RSV postfusion F (postF), subtype A (respiratory syncytial virus, subtype A, UniProt P03420 26-513)
# T1 construct: also called F ΔFP; Postfusion subtype A
# Experiment: BLI, IgG
Binder,Kd,binding result
B1,11.7 nM,
B15,0.452 nM,
B2,,no binding
B3,1.28 nM,
B4,6.37 nM,
B5,0.777 nM,
B6,0.742 nM,
B7,0.339 nM,
B8,1.07 nM,
B9,0.373 nM,
B10,1.63 nM,
B11,0.441 nM,
B12,0.596 nM,
B13,0.627 nM,
B14,0.182 nM,

# Biological target: RSV prefusion F (preF), subtype B (respiratory syncytial virus, subtype B)
# Experiment: BLI, IgG
row,Binder,Kd
1,B1,0.227 nM
2,B16,0.223 nM
3,B15,7.07 nM
4,B2,0.474 nM
5,B17,2.72 nM
6,B6,20.3 nM
7,B7,0.906 nM
8,B8,2.82 nM
9,B9,21 nM
10,B11,1.58 nM
11,B12,28.2 nM
12,B18,3.09 nM
13,B14,0.369 nM

# Biological target: T2, RSV postfusion F (postF), subtype B (respiratory syncytial virus, subtype B)
# T2 construct: also called F ΔFP; Postfusion subtype B
# Experiment: BLI, IgG
row,Binder,Kd
1,B1,38 nM
2,B16,63.4 nM
3,B15,4.81 nM
4,B2,11.7 nM
5,B3,0.659 nM
6,B4,118 nM
7,B5,1.03 nM
8,B17,0.399 nM
9,B6,9.34 nM
10,B7,0.473 nM
11,B8,0.74 nM
12,B9,3.55 nM
13,B10,3.99 nM
14,B11,0.258 nM
15,B12,15.4 nM
16,B18,0.609 nM
17,B13,0.498 nM
18,B14,0.106 nM

# Biological target: RSV F on RSV-A2 virus (Respiratory syncytial virus, RSV-A2, UniProt P03420 26-574)
# Experiment: cell-based or functional assay
row,Binder,Neutralization IC50 (RSV subtype A)
1,B19,> 25 µg/mL

# Biological target: RSV prefusion F (preF), DS-Cav1 (Respiratory syncytial virus, UniProt P03420 26-513)
# Experiment: BLI, IgG on anti-human IgG sensor, 100 nM antigen
row,Binder,Kd
1,B19,2.94 nM

# Biological target: RSV postfusion F (postF), F ΔFP (Respiratory syncytial virus, UniProt P03420 26-513)
# Experiment: BLI, IgG on anti-human IgG sensor, 100 nM antigen
row,Binder,Kd
1,B19,0.825 nM
